Target: Recombinant full-length human TDP-43 (human, UniProt Q13148 1-414)
Assay: cell-based or functional assay

Recombinant full-length human TDP-43, sequence (Q13148 whole entry): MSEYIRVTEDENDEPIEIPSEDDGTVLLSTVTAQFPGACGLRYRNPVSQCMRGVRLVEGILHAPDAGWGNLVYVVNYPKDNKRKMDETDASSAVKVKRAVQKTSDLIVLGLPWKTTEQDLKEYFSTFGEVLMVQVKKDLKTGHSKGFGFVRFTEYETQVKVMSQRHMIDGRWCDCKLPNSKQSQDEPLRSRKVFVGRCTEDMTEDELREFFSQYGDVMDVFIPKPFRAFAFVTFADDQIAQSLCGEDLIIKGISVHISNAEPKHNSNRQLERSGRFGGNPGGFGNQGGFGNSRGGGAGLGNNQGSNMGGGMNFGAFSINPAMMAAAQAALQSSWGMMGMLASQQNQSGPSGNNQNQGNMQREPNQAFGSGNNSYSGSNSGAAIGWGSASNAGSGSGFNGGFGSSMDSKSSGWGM

area of high-height particles > 10 nm by atomic force microscopy after co-incubation of TDP-43 (1 μM) with CHCHD10^S59L (1 μM), 37 °C, 8 h, shaking, against TDP-43 alone: > 3 fold
B1: His-tagged CHCHD10^S59L recombinant protein (natural protein, human, UniProt Q8WYQ3 17-142, looked up)
chain: AAPSAHPPAHPPPSAAAPAPAPSGQPGLMAQMATTAAGVAVGLAVGHVMGSALTGAFSGGSSEPSQPAVQQAPTPAAPQPLQMGPCAYEIRQFLDCSTTQSDLSLCEGFSEALKQCKYYHGLSSLP

Reference: article PMC9254494, “Modulation of synaptic plasticity, motor unit physiology, and TDP-43 pathology by CHCHD10” (Acta Neuropathologica Communications, 2022)
